Kd data for two molecules are collected here from publication PMC8102337.

No end group written: not given here.

Assay [1] concerns the target N-terminally biotinylated HSP27 IXI peptide 178…186 (F185H), unmodified (human). Description: SPR. A general note: In SPR one partner is held on a chip, and binding of the other changes the refractive index at the surface.
In assay [2] the target is HSP27 alpha crystallin domain (ACD) (human). Description: ITC.

By Kd is commonly meant the free concentration of one partner at which half of the binding sites on the other are occupied at equilibrium, for simple one-to-one binding. Lower therefore signals tighter binding. As for “HSP27 alpha crystallin domain (ACD) (domain or fragment)”, the Kd in assay [1] amounted to 3.14 µM.

In assay [2], EITIPVTHE (not fully specified) [HSP27 IXI peptide 178…186 (F185H), unmodified, without biotin] registered a Kd of 14.3 µM.
